Reference: the nanobody polyreactivity screen of Harvey et al. (2022)

test: yeast display, Sf9 membrane polyspecificity reagent, FACS + sequencing; frameworks hold sequencing errors
How it was run: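 A synthetic nanobody library was expressed on Saccharomyces cerevisiae BJ5465 by galactose induction for 36–48 hours. The library was stained for 1 hour at 4 °C with 10% biotinylated, detergent-solubilized Sf9 membrane reagent and enriched with streptavidin microbeads before FACS. Low and high (top ~1%) gates were set on anti-HA fluorescence for expression and streptavidin fluorescence for reagent binding, and each polyreactivity label reflects the gate of origin.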

Row | Sequence | polyreactivity (PSR sort gate)
1 | QVQLQESGGVQVQAGGSLRLSCAASGYISTHYFMGWYRQAPGKDREFVAGISNGSITNYADSVKGRFTISRDNARNTVYLQMNSLKPEDTAVYYGAAYEWTYVRFGYWGQGTLVTVSS | high polyreactivity
2 | QVQLVESGGGLVQAGGSLRLSCAASGNTFYGYAIGWYRQAPGKERELVASITLSGDSTYYADSVKGRFTISRDNAKNTVYLQMNSLKPEDTAVYYCAGVYTYPLGYYHYTYDYWGQGTQVTVSS | low polyreactivity
3 | QVQLVESGGGLVQAGGSLSLSCAASARIFYGYAMGWYRQEPGKEREFVAAITSGGRTYYADSVKGRFTISRDNAKNTVYLQMNSLKPEDTAVYYCAAAQYYRYGYWGQGTQVTVSS | high polyreactivity
4 | QVQLEESGGGLVQAGGSLRLSCAASGRTFITYAMGWYRQAPGKVRELVASITSNGGRTYYADSVKGRFKISRDNAKNTVYLQMNSLKPEYTAVYYCSAGTRSRAPYYRTSVDTYGYWGQGTQVTVSS | low polyreactivity
5 | QVQLVESGGGLVQAGGSLRLSCAASGYIVLVYAMGWYRQAPGKERELFASITRGTRTYYADSVKGRFTISRDNAKNTVYLQMNSLKPEDTAVYYCAAEHSGYPVAFYITGYGYDYWGQGTQVTVSS | low polyreactivity
6 | QVQLVESGGGLVQAGGSLRLSCAASGSIFSYYAMGWYRQAPGKERVLVAAIRRGGSTNYADSVKGRFTISRDNAKNTVYLQLNSLKPEDTAVYYCAASLGWRFYYWGQGTQVTVSS | high polyreactivity
7 | QVQLVESGGGLVQAGGSLRLSCAASGGIVDSNAMGWYRQAPGKERELVAAISDSGGSTYYADSVKGRFTISRDNAKNTVYLQMNSLKPEDTAVYYCAADSDYHFVNYRFGMDYWGQGTQVTVSS | low polyreactivity
8 | QVQLVESGGGLVQAGGSLRLSCAASGFTFRFYAMGWYRQAPGKERELVAAISYNGGSTYYADSVKGRFTISRDNAKNTVYLQMNSLKPEDTAVYYCAAGYYWQYTSSSAQYAYDYWGQGTQVTVSS | low polyreactivity
9 | QVQLVESGGGLVQAGGSLRLSCAASGIIFAYYAMGWYRQAPGKERELVAAISDNGGRTFYADSVKGRFTISRDNAKNTVYLQMNSLKPEDTAVYYCAAVVYSEYYYWGQGTQVTVSS | low polyreactivity
10 | QVQLVESGGGLVQAGGSLRLICAASGYTFSFYAMGWYIQAPGKERELVAAISRSGGSTYYADSVKGRFTISRDNAKNTVYLQMNSLKPEYTAVYYCAARWPGAYHEYGYWGQGTQVTVSS | high polyreactivity
11 | QVQLVESGGGLVQAGGTLRLSCGASGLIFTSNAMGWYRQAPGKESELVAAISNTGGSTYYADSVKGRFTISRDNSKNTVYLQMNSLKPEDTAVYYCAVDPAAGLTNVFYLKYFGYDFWGQGTQVTVSS | low polyreactivity
12 | QGQLVESGGGLVQAGGSLRLSCAASGLTFKGYAMGWYRQAPGKERELVAAITWDTGSTYYADSVKGRFTISRDNAKNTVYLQMNSLKPEDTAVYYCAAVGSTTTGVRRRGYWGQGTQVTVSS | high polyreactivity
13 | QVQLVESGGGLVQAGGSLRLSCAASGYTFTGYAMGWYRQAPGKERELVAAITSIGGSTYYADSVKGRFTISRDNAKTTVYLQMNSLKPEDTAVYYCAKDALVIDGGGGYDYWGQGTQVTVSS | low polyreactivity
14 | QVQLVESGGGLVQAGGSLRLSCAASGRTFARNAMGWYRQAPGKDRELVAAISSSGGSTYYADSVKGRFTISRDNAKNTVYLQMNSLKPEDTAVYYCAARSRHAYGYWGQGTQVTVSS | high polyreactivity
15 | QVQLVESGGGLVQAGGSLRLICAASGRIFSSYAMGWYRQAPGKERELVAAISRGGGRTYYADSVKGRFTISRDNAKNTVYLQMNSLKPEDTAVYYCAVRLYYSIRYYYWGQGTQVTVSS | high polyreactivity
16 | QVQLVESGGGLVQAGGSLRLSCASSGSTFRKNTMGWYIPAPGKEREFVAAISRSGGSTYYADSVKGRFTISRDNAKNTVYLQMNSLKPEDTAVYYCAASYYPHQYSYELGDYWGQGTQVTVSS | low polyreactivity
17 | QVQLQESGGGLVQAGGSLRLSCAASGYISQSSVMGWYRQASGKEREFVASISYGATTYYADSVKGRFTISRDNAKNTVYLQTNSPKPEDTAVYYCAVWVKRGFSHRYWGQGTQVTVSS | high polyreactivity
18 | QVQLVESGGGLVQAGGSLRLSCAASGFTFLVYAMGWYRQAPGKERELVAAISRRGGSTYYADSVKGRFTISRDNAKNTVYLQINSLKPEDTAVYYCNVDRYYRIGYYRLTMGYWGQGTQVTVSS | high polyreactivity
19 | QVQLVESGGGLVQAGGSLRLSCAASGSTFSRYAMGWYRQAPGKERELVAAITRSGGGTHYADSVKGRFTISRDNAKNTVYLQMNSLKPEDTAVYYCATDYTKYPTGYYYWGQGTQVTVSS | low polyreactivity
20 | QVQLVESGGGLVQAGGSLRLSFAASGSTFSRYAMGWYRQAPGKERELVAAISSGGGTNYADSVKGRFTISRDNAKNTVYLQMNSLKPEDTSVYYRAAVTVDFLKGYGWWFWQISDFWGQVTQVTVSS | low polyreactivity
21 | QVQLVESGGGLVQAGGSLRLSCAASGSTFGTYGMGWSRQAPGKERESVADITSGGSTYYADSVKGRFTISRDNAKNTVYLQMNSLKPEDTAVYSCAASWFVWSTAVPYDYWGQGTQVTVSS | low polyreactivity
22 | QVQLVESGGGLVQAGGSLRLSCAASGIIFYGYAMGWYRQAPGKERELVAAITYSGGSTYYADSVKGRFTISRDNAKNTVYLQMNSLKPEDTAVYYCAAYDAYSPYQALYDYWGQGTQVTVSS | low polyreactivity

Row | Sequence | polyreactivity (PSR sort gate)
23 | QVQLVESGGGLVHAGGSLRLSCAASGFIFGSYTMVWYRTAPGKERELVATITLSDGSTYYADSVNGRFTISRDNANNTVFLQMNSLKPEDTAVYYCNKDKVVVRYDYWGQGTQVTVSS | low polyreactivity
24 | QVQLVESGGGLVQAGGSLRLSCAASGSNFVWYVMGWYRQAPGKDRELVAAITWSAARTYYADSVKGRFTISRDNAKNTVYLQMNSLKPEDTAVYYCAADGYPLQLYNYWGQGTQVTVSS | low polyreactivity
25 | QVQLVESGGGLVQAGGSLRLSCAASGFIFYYYAMGWYRQAPGKERELVAAISSRGGITYYADSVKGRFTISRDNAKNTVYLQMNSLKPEDTAVYYCAVDFRPGYDYWGQGTQVTVSS | low polyreactivity
26 | QVQLVESGGGLVQAGGSLRISCAASGSIFSYYAMGWYRQAPGTERELVAAITRGGTTYYADSVKGRFTISRDNAKNTVYLQMNSLKPEDTAVYYCAVYYYSGTAGYRYGYWGQGTQVTVSS | high polyreactivity
27 | QVQLVESGGGLVQAGGSLRLRCAASGFIFCQYSMGWYRQAPGKERELVAAITWGGTNTYYADSVKGRFTISRDNAKNTVYLQMNSLKPEDTAVYYCAADNSPFTGNLDYWGQGTQVTVSS | low polyreactivity
28 | QVQLVESGGGLVQAGGSLRLSCAPSGRTFSVNDMGWYRQAPGKERELVAAISFSGGSTYYADSVKGRFTISRDNAKNTVYLQMNSLKPEDTAVYYCAAEAYPSWFYVITGFGIYDYWGQGTQVTVSS | high polyreactivity
29 | QVQLVESGGGLVQAGGSLRLSCAASGSILTPYAMGWYRQAPGKERELVAAISWGDGSTYYADSVKGRFTISRDNAKNTVYLQMNSLKPEDTAVYYCAAVSYYGVDQYRITVYTYEYWGQGTQVTVSS | low polyreactivity
30 | QVQLVESGGGLVQAGGSLRLSCAASGSIIVGYAMGWYRQAPGKERELVAAISWSGGRTYYADSVKGRFTISRDNAKNTVYLQMNSLKPEDTAVYYCATVTKGSLRYNYNYWGQGTQVTVSS | high polyreactivity
31 | QVQIVESGGGLVQAGGSLRLSCAASGSIFPHYAMGWYRQAPGKERELVAAISRGGSTNYADSVKGRFTISRDNAKNTVYLQMNSLKPEDTAVYYCNALRYYSRFLYAVAYRYDYWGQGTQVTVSS | high polyreactivity
32 | QVQLVESVGGLVQAGGSHRLSCAASGLTFEWYTMGWYRQAPGKERELVAVITVSGSSTYYADSVKGRFTISRDNAKNTVYLQMNSLKPEDTAVYYCNADWSFYSYTLYDYWGQGTQVTVSS | low polyreactivity
33 | QVQLVESGGGLVQAGGSLRLSCAASGITYYRYTMGWYRQAPGKDRELVASINWSGTRTYYADSVKGRFTISRDNAKNTVYLLMNSLKPEDTAVYYCAAKGAQGTSRRWFDYWGQGTQVTVSS | high polyreactivity
34 | QVQLVESGGGLVQAGGSLRLSCAASGSIFDVNAMGWYRQAPGKEREMVAAISDSGGSTYYADSVKGRFTISRDNAKNTVYLQMNSLKPEDTAVYYCNAVWSWYNYYDFDYWGQGSQVTVSS | low polyreactivity
35 | QVQLVESGGGLVQAGGSLRLSCAASGYTFDLYAMGWYRQAPGKERELVADISSGGSTNYADSVKGRFTISRDNAKNTVYLQMNSLKPEDTAVYYCAVDADRSLFGQYYVSEYGGGYWGQGTQVTVSS | low polyreactivity
36 | QVQLVESGGGLVQAGGSLRLSCAASGFIFYSYAMGWYRQAPGKERELVAAISGSGGSTYYADSVKGRFTISRDNAKNTVYLQMNSLKPEDTAVYYCAAALTFRMDYWGQGTQVTVSS | high polyreactivity
37 | QVQLVESGGGLVQAGGSLRLSCAASGRIFSSYAMGWYRQEPGKERELVAVIRWSSGSTYYADSVKGRFTISRDNAKNTVYLQMNSLKPEDTAVYYCAALRRRSTKFEHDYWGQGTQVTVSS | high polyreactivity
38 | QVQLVESGGGLVQAGGSLRLSCAASGFTSSINAMGWYRQEPGKERELVAAIRSGGSTNYADSVKGRFTISRDNAKNTVYLQMNSLKPEDTAVYYCAAVTRVYGKTMGYWGQGTQVTVSS | high polyreactivity
39 | QVQLVESGGGLVQAGGSLRLSCAASGLIFVSYGMGWYRQAPGKERELVAAITFSGGSTYYADSVKGRFTISRDNAKNTVYLQMNSLKPEDTAVYYCNADYYPGYDYWGQGTQVTVSS | high polyreactivity
40 | QVQLVESGGGLVQAGGSLRLSCAASGRTLELYVMGWYRQAPGKERELVAAIRWGTGSTYYADSVKGRFTISRDNAKNTVYLQMNSLKPEDTAVYYCAAVLRQYYRAYDYWGQGTQVTVSS | high polyreactivity
41 | QVQLVESGGGLVQAGGSLRLSCAASGGNFVSYAMGWYRQAPGKERDLVARINSVDGTNYADSVKGRFTISRDNAKNTVYLQMNSLKPEDTAVYYCATGGYYSAIVYGGYDYWGQGTQVTVSS | low polyreactivity
42 | QVQLVESGGGLVQAGGSLRLSSAASGRIFYRNAMGWYRQAPGKEREMVAAIRGSGGRTYYADSVKGRFTISRDNAKYTVYLQMISLKPEDTAVYYCAAYGYYVEHPRGLSGPYDDDYWGQGTQVTVSS | low polyreactivity
43 | QVQLVESGGGLGQAGGSLRLSCAASGLIFGLYAMGWYRQAPGKERELVAAISYRTDSTYADSVKGRFTISRDNAKNTVYLQMNSLKPEDTAVYYCAADLRVSVRYYYWGQGTQVTVSS | low polyreactivity
